Measurements published in patent publication US20250313644A1 (FUTUREGEN BIOPHARMACEUTICAL BEIJING, published 2025).

What was measured:
LT-α [1] = molecular target: T1, LT-α (UniProt P01374 35-205); experiment: ELISA, coated LT-α, Ab 0.391 nM
T1 sequence (looked up): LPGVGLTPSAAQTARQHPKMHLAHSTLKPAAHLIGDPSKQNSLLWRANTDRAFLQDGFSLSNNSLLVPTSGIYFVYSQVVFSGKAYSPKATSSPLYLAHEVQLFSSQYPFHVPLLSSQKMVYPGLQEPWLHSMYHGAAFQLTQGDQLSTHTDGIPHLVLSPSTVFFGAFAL
Procedure: (§1) In this experiment, ELISA was used to assess the binding ability of monoclonal antibodies to TL1A homologous molecules. Representative members of the TNF ligand superfamily, TNFα, LT-α, LIGHT and FASL, were selected for binding testing. 1 μg/mL of TNFα, LT-α, LIGHT or FASL was coated in a microplate with a carbonate buffer solution at pH=9.6, 100 μL per well, and the microplate was incubated at 4° C. overnight. The microplate was then washed 5 times with PBST, blocked with 300 μL/well of PBS containing 1% BSA, and was incubated at room temperature for 1 hour. After washing 5 times with PBST, about 100 μL each of the M701 monoclonal antibodies and the control antibodies were added to each well, and were incubated at room temperature for 1 hour. After washing 5 times with PBST, 100 μL of HRP-anti-human Fc (Sino Biological) was added to each well, and was incubated at room temperature for 1 hour. After washing 5 times with PBST, 100 μL of colorimetric substrate TMB was added to each well, and color was developed at room temperature for 10 minutes, followed by addition of 1M sulfuric acid to terminate the reaction. OD450 nm was recorded on a microplate reader.

LT-α [2] = molecular target: T1, LT-α; experiment: ELISA, coated LT-α, Ab 25 nM
Procedure: as §1

TNFα [3] = molecular target: T2, TNFα (UniProt P01375 77-233); experiment: ELISA, coated TNF-α, Ab 6.25 nM
T2 sequence (P01375 77-233 limits assumed): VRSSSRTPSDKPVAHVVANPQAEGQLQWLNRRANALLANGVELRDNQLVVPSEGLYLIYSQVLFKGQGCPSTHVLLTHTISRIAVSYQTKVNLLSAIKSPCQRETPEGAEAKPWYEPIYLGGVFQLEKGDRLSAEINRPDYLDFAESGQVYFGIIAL
Procedure: as §1

LIGHT [4] = molecular target: T3, LIGHT (UniProt O43557 74-240, limits assumed); experiment: ELISA, coated LIGHT, Ab 25 nM
T3 sequence (O43557 74-240 limits assumed): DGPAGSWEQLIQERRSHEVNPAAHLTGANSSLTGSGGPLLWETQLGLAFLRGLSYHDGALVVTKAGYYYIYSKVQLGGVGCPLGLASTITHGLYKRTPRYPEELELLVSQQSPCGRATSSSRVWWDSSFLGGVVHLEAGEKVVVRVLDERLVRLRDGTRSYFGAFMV
Procedure: as §1

human TL1A (HuTL1A) [5] = molecular target: T4, human TL1A (HuTL1A) (human, UniProt O95150 57-251, limits assumed, biotin-labelled in some assays (site not stated)); experiment: cell-based or functional assay
T4 sequence: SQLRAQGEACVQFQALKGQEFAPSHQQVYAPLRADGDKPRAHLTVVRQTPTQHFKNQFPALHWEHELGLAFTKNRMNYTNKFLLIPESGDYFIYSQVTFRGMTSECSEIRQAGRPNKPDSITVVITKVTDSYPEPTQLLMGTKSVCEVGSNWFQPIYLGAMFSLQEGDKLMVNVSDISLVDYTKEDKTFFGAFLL

human TL1A (HuTL1A) [6] = molecular target: T4, human TL1A (HuTL1A); experiment: cell-based or functional assay; remark: listed apart in the source
FASL [7] = molecular target: T5, FASL (UniProt P48023 134-281, limits assumed); experiment: ELISA, coated FASL, Ab 6.25 nM
T5 sequence (looked up): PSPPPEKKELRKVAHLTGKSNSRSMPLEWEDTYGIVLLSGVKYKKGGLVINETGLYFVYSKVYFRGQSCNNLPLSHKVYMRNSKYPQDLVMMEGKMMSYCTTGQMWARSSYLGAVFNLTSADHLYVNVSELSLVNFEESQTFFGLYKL
Procedure: as §1

LT-α [8] = molecular target: T1, LT-α; experiment: ELISA, coated LT-α, Ab 1.563 nM
Procedure: as §1

human TL1A (HuTL1A) [9] = molecular target: T4, human TL1A (HuTL1A); experiment: DLS, antigen and antibody mixed in equal moles
Procedure: 60 μM antigen and antibody was mixed in equal moles, incubated at room temperature for 30 minutes, and then the molecular size was detected using UNCLE or SEC.

FASL [10] = molecular target: T5, FASL; experiment: ELISA, coated FASL, Ab 0.000 nM (blank)
Procedure: as §1

LT-α [11] = molecular target: T1, LT-α; experiment: ELISA, coated LT-α, Ab 0.000 nM (blank)
Procedure: as §1

LIGHT [12] = molecular target: T3, LIGHT; experiment: ELISA, coated LIGHT, Ab 0.000 nM (blank)
Procedure: as §1

LIGHT [13] = molecular target: T3, LIGHT; experiment: ELISA, coated LIGHT
Procedure: as §1

FASL [14] = molecular target: T5, FASL; experiment: ELISA, coated FASL
Procedure: as §1

TNFα [15] = molecular target: T2, TNFα; experiment: ELISA, coated TNF-α, Ab 0.000 nM (blank)
Procedure: as §1

FASL [16] = molecular target: T5, FASL; experiment: ELISA, coated FASL, Ab 0.391 nM
Procedure: as §1

TNFα [17] = molecular target: T2, TNFα; experiment: ELISA, coated TNF-α, Ab 1.563 nM
Procedure: as §1

LT-α [18] = molecular target: T1, LT-α; experiment: ELISA, coated LT-α, Ab 6.25 nM
Procedure: as §1

LIGHT [19] = molecular target: T3, LIGHT; experiment: ELISA, coated LIGHT, Ab 0.391 nM
Procedure: as §1

TNFα [20] = molecular target: T2, TNFα; experiment: ELISA, coated TNF-α, Ab 0.391 nM
Procedure: as §1

FASL [21] = molecular target: T5, FASL; experiment: ELISA, coated FASL, Ab 1.563 nM
Procedure: as §1

TNFα [22] = molecular target: T2, TNFα; experiment: ELISA, coated TNFα
Procedure: as §1

LIGHT [23] = molecular target: T3, LIGHT; experiment: ELISA, coated LIGHT, Ab 6.25 nM
Procedure: as §1

TNFα [24] = molecular target: T2, TNFα; experiment: ELISA, coated TNF-α, Ab 100 nM
Procedure: as §1

LIGHT [25] = molecular target: T3, LIGHT; experiment: ELISA, coated LIGHT, Ab 1.563 nM
Procedure: as §1

FASL [26] = molecular target: T5, FASL; experiment: ELISA, coated FASL, Ab 25 nM
Procedure: as §1

FASL [27] = molecular target: T5, FASL; experiment: ELISA, coated FASL, Ab 100 nM
Procedure: as §1

LT-α [28] = molecular target: T1, LT-α; experiment: ELISA, coated LT-α
Procedure: as §1

LT-α [29] = molecular target: T1, LT-α; experiment: ELISA, coated LT-α, Ab 100 nM
Procedure: as §1

LIGHT [30] = molecular target: T3, LIGHT; experiment: ELISA, coated LIGHT, Ab 100 nM
Procedure: as §1

TNFα [31] = molecular target: T2, TNFα; experiment: ELISA, coated TNF-α, Ab 25 nM
Procedure: as §1

B1: M701-4019 (antibody, human IgG1, kappa, L234A L235A, V domains shown)
VH: ELQLQESGPGLVKPSETLSLTCAVSGVSFTDYHWAWIRQPPGKGLEWIGDINHRGHTNYNPSLKSRVTVSIDTSKNQFSLKLSSVTAADTAVYYCARDYPNFIYDYWGQGTLVTVSS
VL: DIQLTQSPGTLSLSPGERATLSCRASQSVSNYLAWYQQKPGQAPRLLIYGASRRATGIPARFSGSGSGTDFTLTISSLEPEDFAVYYCQQYAASPLTFGQGTKVEIKR
notes: Fc-engineered IgG1
Question: With B1 as the binder, how does the OD450 nm (LT-α [1]) read?
Answer: Its OD450 nm is 0.0572.

Question: And the OD450 nm (LT-α [2])?
Answer: The OD450 nm was 0.0627.

Question: And the OD450 nm (TNFα [3])?
Answer: Its OD450 nm is 0.0591.

Question: What about the OD450 nm (LIGHT [4]) of the same binder?
Answer: Its OD450 nm is 0.061.

Question: What about the “IC50 (read off the curve); IFN-γ of human T cells with IL-12, IL-18 and exogenous human TL1A” value (human TL1A (HuTL1A) [5]) of the same binder?
Answer: The value was ~0.2 nM.

Question: What about the “IC50 (read off the curve); SEAP reporter in HEK293T/DR3-NFκB cells with soluble TL1A, OD655” value (human TL1A (HuTL1A) [6]) of the same binder?
Answer: Its value is ~1 nM.

Question: And the OD450 nm (FASL [7])?
Answer: Its OD450 nm is 0.0529.

Question: And the OD450 nm (LT-α [8])?
Answer: Its OD450 nm is 0.0602.

Question: What about the “Ave Z-dia (nm) of the antigen-antibody complex” value (human TL1A (HuTL1A) [9]) of the same binder?
Answer: The value was 18.5 nm.

Question: What about the OD450 nm (FASL [10]) of the same binder?
Answer: The OD450 nm was 0.0602.

Question: What about the OD450 nm (LT-α [11]) of the same binder?
Answer: The OD450 nm was 0.0648.

Question: And the OD450 nm (LIGHT [12])?
Answer: Its OD450 nm is 0.0563.

Question: Does B1 bind (LIGHT [13])?
Answer: Result: no binding (tested: 100 nM)

Question: Does B1 bind (FASL [14])?
Answer: Result: no binding (tested: 100 nM)

Question: And the OD450 nm (TNFα [15])?
Answer: The OD450 nm was 0.0748.

Question: And the OD450 nm (FASL [16])?
Answer: Its OD450 nm is 0.0506.

Question: And the OD450 nm (TNFα [17])?
Answer: Its OD450 nm is 0.057.

Question: What about the OD450 nm (LT-α [18]) of the same binder?
Answer: The OD450 nm was 0.0566.

Question: And the OD450 nm (LIGHT [19])?
Answer: Its OD450 nm is 0.0528.

Question: And the OD450 nm (TNFα [20])?
Answer: The OD450 nm was 0.0567.

Question: What about the OD450 nm (FASL [21]) of the same binder?
Answer: The OD450 nm was 0.0514.

Question: Does B1 bind (TNFα [22])?
Answer: Result: no binding (tested: 100 nM)

Question: What about the OD450 nm (LIGHT [23]) of the same binder?
Answer: The OD450 nm was 0.0572.

Question: And the OD450 nm (TNFα [24])?
Answer: The OD450 nm was 0.105.

Question: And the OD450 nm (LIGHT [25])?
Answer: Its OD450 nm is 0.0539.

Question: And the OD450 nm (FASL [26])?
Answer: Its OD450 nm is 0.0612.

Question: What about the OD450 nm (FASL [27]) of the same binder?
Answer: Its OD450 nm is 0.0886.

Question: Does B1 bind (LT-α [28])?
Answer: Result: no binding (tested: 100 nM)

Question: And the OD450 nm (LT-α [29])?
Answer: Its OD450 nm is 0.067.

Question: And the OD450 nm (LIGHT [30])?
Answer: Its OD450 nm is 0.0942.

Question: And the OD450 nm (TNFα [31])?
Answer: Its OD450 nm is 0.066.
